Measured values reported in US20110236397.

Key:
[1] = test system: full-length CD2AP, GFP-tagged (GFP-CD2AP fusion protein, 98 kD)
[2] = test system: C-terminal FLAG-tagged CD2AP (71 kD)
[3] = test system: CD2AP with the cathepsin L cleavage site LSAAE deleted

purified FLAG-CD2AP, sequence (chain, as listed by the source): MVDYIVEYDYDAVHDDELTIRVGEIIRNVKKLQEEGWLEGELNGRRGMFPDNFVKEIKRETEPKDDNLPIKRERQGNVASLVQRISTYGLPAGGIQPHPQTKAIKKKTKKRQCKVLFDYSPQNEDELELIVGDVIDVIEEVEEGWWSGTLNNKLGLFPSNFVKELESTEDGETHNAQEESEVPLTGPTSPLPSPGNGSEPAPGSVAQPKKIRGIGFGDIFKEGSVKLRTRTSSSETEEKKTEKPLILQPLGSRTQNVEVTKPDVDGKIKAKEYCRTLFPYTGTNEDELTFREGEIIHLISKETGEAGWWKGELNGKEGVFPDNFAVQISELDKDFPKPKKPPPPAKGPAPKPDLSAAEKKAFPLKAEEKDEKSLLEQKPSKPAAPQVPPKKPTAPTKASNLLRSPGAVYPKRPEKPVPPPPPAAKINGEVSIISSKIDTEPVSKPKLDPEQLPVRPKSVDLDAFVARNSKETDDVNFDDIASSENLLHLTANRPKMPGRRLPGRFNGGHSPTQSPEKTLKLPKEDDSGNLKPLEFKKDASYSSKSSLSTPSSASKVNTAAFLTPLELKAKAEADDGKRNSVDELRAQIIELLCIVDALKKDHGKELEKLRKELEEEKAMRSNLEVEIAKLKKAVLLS

Substance: purified cathepsin L enzyme (Sigma, specific activity 4.13 U/mg)
- in vitro cleavage assay, silver stain (purified FLAG-CD2AP): cleavage assays performed at neutral conditions (pH 7.0) yielded a stable 32 kD CD2AP fragment (p32)
- in vitro cleavage assay, immunoblot [1]: At neutral pH, CD2AP was cleaved into a stable 55 kD fragment as detected with an anti-GFP antibody
- in vitro cleavage assay, immunoblot [2]: This experiment yielded a C-terminal 44 kD fragment of CD2AP; the anti-FLAG antibody also detected a strong band corresponding to p32 fragment
- in vitro cleavage assay, immunoblot [3]: In absence of this cleavage site, the characteristic p32 fragment was no longer observed after enzymatic digest with cathepsin L enzyme
